Results reported in paper PMC9534812, “Hetero-pentamerization determines mobility and conductance of Glycine receptor α3 splice variants” (Cellular and Molecular Life Sciences, 2022).

Columns and labels:
[1] = target: the molecule itself; assay: molecular brightness from raster image correlation spectroscopy (RICS); live HEK293 cells, confocal, 37 °C, bottom membrane; clusters masked out by intensity thresholding; brightness of eGFP compared with eGFP5 and Lyn-eGFP references
[2] = target: GlyR-α3K-mCherry (glycine receptor α3 subunit, short splice variant K, N-terminally tagged with mCherry) (mouse); assay: subunit counting by stepwise photobleaching (TIRF microscopy); fixed HEK293 cells with low copy number expression (50 ng GlyR-α3L-eGFP, 0-500 ng GlyR-α3K-mCherry); eGFP bleaching steps per diffraction-limited spot, step histogram fitted with binomial models; room temperature

B1: GlyR-α3L-eGFP (glycine receptor α3 subunit, long splice variant L, N-terminally tagged with eGFP) (receptor, mouse, UniProt Q91XP5 34-464, looked up)
chain: ARSRSAPMSPSDFLDKLMGRTSGYDARIRPNFKGPPVNVTCNIFINSFGSIAETTMDYRVNIFLRQKWNDPRLAYSEYPDDSLDLDPSMLDSIWKPDLFFANEKGANFHEVTTDNKLLRIFKNGNVLYSIRLTLTLSCPMDLKNFPMDVQTCIMQLESFGYTMNDLIFEWQDEAPVQVAEGLTLPQFLLKEEKDLRYCTKHYNTGKFTCIEVRFHLERQMGYYLIQMYIPSLLIVILSWVSFWINMDAAPARVALGITTVLTMTTQSSGSRASLPKVSYVKAIDIWMAVCLLFVFSALLEYAAVNFVSRQHKELLRFRRKRKNKTEAFALEKFYRFSDTDDEVRESRFSFTAYGMGPCLQAKDGVVPKGPNHAVQVMPKSPDEMRKVFIDRAKKIDTISRACFPLAFLIFNIFYWVIYKILRHEDIHQQQD
notes: Glycine receptor subunit alpha-3, mouse, splice variant L (464 residues); The receptor assembles as a pentamer; the molecule here is the subunit; also called L variant; GlyR-α3L-FP; source: HEK293, transiently transfected (calcium phosphate; truncated CMV promoter), in the membrane of live or fixed cells; not shown: eGFP, N-terminal, kept
- stoichiometry N [1]: 5
- heteropentameric fraction (2nd order binomial fit) [2]: 23%
- heteropentameric fraction (3rd order binomial fit) [2]: 36%
- heteropentameric fraction (4th order binomial fit) [2]: 67%
